According to patent publication US6207419A, “Thrombin inhibitory agents and methods of using same” (The University of North Carolina at Chapel Hill, priority 1999, dated 2001):

Tests used:
thrombin = assay: Thrombin inhibition in the absence of glycosaminoglycan; format: biochemical, human
Description: All assays were performed at room temperature in 96-well microtiter plates previously coated with 2 mg/mL BSA.
Residual thrombin activity was measured with 150 μM GlyProArg-NA and 1 mg/mL pB in the absence of glycosaminoglycan, 2 mg/mL pB in the presence of heparin and 4 mg/mL in the presence of dermatan sulfate. Residual factor Xa activity was measured with 500 μM Spectrozyme FXa and 2mg/mL pB in the presence or absence of glycosaminoglycan. Residual chymotrypsin activity was measured with 150 μM AlaAlaProPhe-NA and residual trypsin activity was measured with 150 μM GlyProArg-NA.
Assays were performed at least in triplicate on two or more recombinant protein preparations.

[1] = test system: plasma-purified α-thrombin; assay: Thrombin inhibition with heparin before and after carboxypeptidase A digest; format: biochemical, human; conditions: 2 hr, room temperature, FIG. 3
Description: Forty ng of CPA was combined with approximately 1 μg of recombinant protein and incubated at room temperature. Following a 2-hr incubation at room temperature, 2 mM EDTA was added to quench CPA activity. Controls were run in which EDTA was added to the reaction prior to the addition of CPA. CPA digested proteins were then assayed according to previously mentioned procedures.

B1: rHCII-CHis6: Recombinant HCII with six histidine residues added at the carboxyl terminus; SEQ ID NO:5 (protein)
chain: MKHSLNALLIFLIITSAWGGSKGPLDQLEKGGETAQSADPQWEQLNNKNLSMPLLPADFHKENTVTNDWIPEGEEDDDYLDLEKIFSEDDDYIDIVDSLSVSPTDSDVSAGNILQLFHGKSRIQRLNILNAKFAFNLYRVLKDQVNTFDNIFIAPVGISTAMGMISLGLKGETHEQVHSILHFKDFVNASSKYEITTIHNLFRKLTHRLFRRNFGYTLRSVNDLYIQKQFPILLDFRTKVREYYFAEAQIADFSDPAFISKTNNHIMKLTKGLIKDALENIDPATQMMILNCIYFKGSWVNKFPVEMTHNHNFRLNEREVVKVSMMQTKGNFLAANDQELDCDILQLEYVGGISMLIVVPHKMSGMKTLEAQLTPRVVERWQKSMTNRTREVLLPKFKLEKNYNLVESLKLMGIRMLFDKNGNMAGISDQRIAIDLFKHQGTITVNEEGTQATTVTTVGFMPLSTQVRFTVDRPFLFLIYEHRTSCLLFMGRVANPSRSHHHHHH
modifications: C-terminal His6 tag
Ratio (mutant/wt serpin), thrombin (thrombin): 1.48 | rate of thrombin inhibition relative to wt-rHCII (thrombin): 1.5 fold | k2 × 10^4 (M^-1 min^-1), thrombin (thrombin; pH 7.4, mean ± S.D.): 1.92 ± .10 × 10^4 (M^-1 min^-1) | change of heparin-dependent thrombin inhibition after CPA digest, in words [1]: shifts to lower rates of inhibition
